From patent US20170306033A1 (Amgen, published 2017)

T1: human PAC1 receptor (human, UniProt P41586 21-468)
T1 sequence: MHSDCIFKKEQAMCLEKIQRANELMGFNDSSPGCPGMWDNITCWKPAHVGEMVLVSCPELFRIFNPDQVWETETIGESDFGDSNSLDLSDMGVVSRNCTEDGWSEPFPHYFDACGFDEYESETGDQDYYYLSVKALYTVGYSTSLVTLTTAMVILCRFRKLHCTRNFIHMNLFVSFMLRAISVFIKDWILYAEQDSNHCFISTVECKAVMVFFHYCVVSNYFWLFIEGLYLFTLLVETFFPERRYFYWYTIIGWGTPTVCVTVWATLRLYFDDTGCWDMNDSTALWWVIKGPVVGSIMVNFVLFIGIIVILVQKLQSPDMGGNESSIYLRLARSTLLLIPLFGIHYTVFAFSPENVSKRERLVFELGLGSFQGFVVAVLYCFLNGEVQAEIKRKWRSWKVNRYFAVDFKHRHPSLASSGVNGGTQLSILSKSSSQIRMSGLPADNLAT


Columns and labels:
[1] = target: human CGRP receptor (human, UniProt Q16602 23-461; O60894 27-148); assay: cell-based or functional assay
human CGRP receptor, sequence (Q16602 23-461 limits assumed, chain 1 of 2): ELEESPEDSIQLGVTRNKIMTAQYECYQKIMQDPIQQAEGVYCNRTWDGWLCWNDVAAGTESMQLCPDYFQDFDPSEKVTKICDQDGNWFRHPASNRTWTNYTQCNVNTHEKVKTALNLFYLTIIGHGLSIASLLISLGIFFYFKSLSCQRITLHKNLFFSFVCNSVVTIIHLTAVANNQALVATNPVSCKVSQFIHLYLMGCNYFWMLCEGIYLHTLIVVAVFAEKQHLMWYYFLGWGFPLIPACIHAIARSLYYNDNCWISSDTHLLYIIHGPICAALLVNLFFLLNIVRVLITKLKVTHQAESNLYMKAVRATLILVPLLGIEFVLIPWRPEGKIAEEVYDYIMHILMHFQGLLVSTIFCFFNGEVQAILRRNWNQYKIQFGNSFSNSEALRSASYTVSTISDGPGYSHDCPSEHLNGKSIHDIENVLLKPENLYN
human CGRP receptor, sequence (O60894 27-148 limits assumed, chain 2 of 2): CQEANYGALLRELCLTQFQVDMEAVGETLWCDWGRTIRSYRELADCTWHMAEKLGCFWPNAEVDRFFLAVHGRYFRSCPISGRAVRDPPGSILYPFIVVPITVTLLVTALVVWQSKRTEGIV

[2] = target: T1, human PAC1 receptor; assay: cell-based or functional assay

Binder	Human CGRP Receptor IC50 [1] [nM]	Human PAC1 Receptor IC50 [2] [nM]
iPS:392475 (bispecific antibody, human IgG1, kappa, lambda, N297G) light: DIQLTQSPSFLSASVGDRVTITCRASQSIGRSLHWYQQKPGKAPKLLIKYASQSLSGVPSRFSGSGSGTEFTLTISSLQPEDFATYYCHQSSRLPFTFGPGTKVDIKRTVAAPSVFIFPPSDEQLKSGTASVVCLLNNFYPREAKVQWKVDNALQSGNSQESVTEQDSKDSTYSLESTLTLSKADYEKHKVYACEVTHQGLSSPVTKSFNRGEC heavy: not shown QVQLVESGGGVVQPGRSLRLSCAASGFTFSSFGMHWVRQAPGKGLEWVAVISFDGSIKYSVDSVKGRFTISRDNSKNTLFLQMNSLRAEDTAVYYCARDRLNYYESSGYYHYKYYGMAVWGQGTTVTVSSGQPKANPTVTLFPPSSEELQANKATLVCLISDFYPGAVTVAWKADGSPVKAGVETTKPSKQSNNKYAAESYLSLTPEQWKSHRSYSCQVTHEGSTVEKTVAPTECS	20.4	4.78
iPS:392514 (bispecific antibody, human IgG1, kappa, lambda, N297G) light: DIQLTQSPSFLSASVGDRVTITCRASQSIGRSLHWYQQKPGKAPKLLIKYASQSLSGVPSRFSGSGSGTEFTLTISSLQPEDFATYYCHQSSRLPFTFGPGTKVDIKRTVAAPSVFIFPPSDEQLKSGTASVVCLLNNFYPREAKVQWKVDNALQSGNSQESVTEQDSKDSTYSLESTLTLSKADYEKHKVYACEVTHQGLSSPVTKSFNRGEC heavy: not shown QVQLVESGGGVVQPGRSLRLSCAASGFTFSSFGMHWVREAPGKGLEWVAVISFDGSIKYSVDSVKGRFTISRDNSKNTLFLQMNSLRAEDTAVYYCARDRLNYYDSSGYYHYKYYGMAVWGQGTTVTVSSGQPKANPTVTLFPPSSEELQANKATLVCLISDFYPGAVTVAWKADGSPVKAGVETTKPSKQSNNKYAAESYLSLTPEQWKSHRSYSCQVTHEGSTVEKTVAPTECS	54	4.69
iPS:392513 (bispecific antibody, human IgG1, kappa, lambda, N297G) light: DIQLTQSPSFLSASVGDRVTITCRASQSIGRSLHWYQQKPGKAPKLLIKYASQSLSGVPSRFSGSGSGTEFTLTISSLQPEDFATYYCHQSSRLPFTFGPGTKVDIKRTVAAPSVFIFPPSDEQLKSGTASVVCLLNNFYPREAKVQWKVDNALQSGNSQESVTEQDSKDSTYSLESTLTLSKADYEKHKVYACEVTHQGLSSPVTKSFNRGEC heavy: not shown QVQLVESGGGVVQPGRSLRLSCAASGFTFSSFGMHWVRQAPGKGLEWVAVISFDGSIKYSVDSVKGRFTISRDNSKNTLFLQMNSLRAEDTAVYYCARDRLNYYDSSGYYHYKYYGMAVWGQGTTVTVSSGQPKANPTVTLFPPSSEELQANKATLVCLISDFYPGAVTVAWKADGSPVKAGVETTKPSKQSNNKYAAESYLSLTPEQWKSHRSYSCQVTHEGSTVEKTVAPTECS	60.2	2.7
iPS:392515 (bispecific antibody, human IgG1, kappa, lambda, N297G) light: DIQLTQSPSFLSASVGDRVTITCRASQSIGRSLHWYQQKPGKAPKLLIKYASQSLSGVPSRFSGSGSGTEFTLTISSLQPEDFATYYCHQSSRLPFTFGPGTKVDIKRTVAAPSVFIFPPSDEQLKSGTASVVCLLNNFYPREAKVQWKVDNALQSGNSQESVTEQDSKDSTYSLESTLTLSKADYEKHKVYACEVTHQGLSSPVTKSFNRGEC heavy: not shown QVQLVESGGGVVQPGRSLRLSCAASGFTFSSFGMHWVRQAPGKGLEWVAVISFDGSIKYSVDSVKGRFTISRDNSKNTLFLQMNSLRAEDTAVYYCARDRLNYYDSSGYYHYKYYGMAVWGQGTTVTVSSASTKGPSVFPLAPSSKSTSGGTAALGCLVKDYFPEPVTVSWNSGALTSGVHTFPAVLQSSGLYSLESVVTVPSSSLGTQTYICNVNHKPSNTKVDKKV	12.9	2.66
